Assay results taken from publication PMC6542941.
Positions count from the first letter of the chain named.

What was measured:
[1] = biological target: T1, human acid-sensing ion channel 1a wild type hASIC1a-G212 (human) (UniProt P78348)
T1 sequence: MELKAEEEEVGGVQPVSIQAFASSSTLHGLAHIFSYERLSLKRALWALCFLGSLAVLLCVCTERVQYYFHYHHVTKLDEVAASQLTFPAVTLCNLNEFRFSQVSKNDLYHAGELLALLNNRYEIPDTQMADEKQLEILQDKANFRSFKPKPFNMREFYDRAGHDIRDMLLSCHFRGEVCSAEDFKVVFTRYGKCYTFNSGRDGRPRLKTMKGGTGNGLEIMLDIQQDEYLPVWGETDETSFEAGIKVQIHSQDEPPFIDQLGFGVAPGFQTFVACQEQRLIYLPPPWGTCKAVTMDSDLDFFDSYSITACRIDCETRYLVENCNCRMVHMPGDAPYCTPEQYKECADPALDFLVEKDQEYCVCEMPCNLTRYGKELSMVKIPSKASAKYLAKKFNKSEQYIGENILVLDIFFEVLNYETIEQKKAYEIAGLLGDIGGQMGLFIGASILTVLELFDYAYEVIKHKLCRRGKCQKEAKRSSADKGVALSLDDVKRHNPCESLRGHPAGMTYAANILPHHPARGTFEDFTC

[2] = biological target: T2, human acid-sensing ion channel 1a variant hASIC1a-D212 (human) (UniProt P78348)
T2 sequence: T1 sequence with G212D

[3] = biological target: human ASIC2a (human) (UniProt Q16515)
Sequence of UniProt Q16515 (Q16515 whole entry): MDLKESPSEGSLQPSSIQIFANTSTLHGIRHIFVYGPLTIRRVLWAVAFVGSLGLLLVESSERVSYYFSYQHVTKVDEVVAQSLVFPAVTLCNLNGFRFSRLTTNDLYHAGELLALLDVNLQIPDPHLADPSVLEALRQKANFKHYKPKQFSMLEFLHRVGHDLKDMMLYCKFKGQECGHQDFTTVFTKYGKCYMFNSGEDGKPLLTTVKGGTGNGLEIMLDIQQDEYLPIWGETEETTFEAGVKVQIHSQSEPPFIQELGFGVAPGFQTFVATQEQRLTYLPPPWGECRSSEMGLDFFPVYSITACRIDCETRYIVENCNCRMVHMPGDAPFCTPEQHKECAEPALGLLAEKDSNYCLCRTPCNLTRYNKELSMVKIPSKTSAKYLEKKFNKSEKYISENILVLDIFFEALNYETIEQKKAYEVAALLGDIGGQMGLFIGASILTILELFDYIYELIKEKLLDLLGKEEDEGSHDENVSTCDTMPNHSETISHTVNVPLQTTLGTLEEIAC

Question: For “Psalmotoxin1 (from UniProt P60514 1-40) (peptide)”, which IC50 of inhibition of the pH5.0-induced current, whole-cell patch-clamp of CHO cells; PcTx1 pre-applied 60 s in the conditioning pH 7.4 solution [1] is on record?
Answer: 1.83 nM

Question: And the IC50 of inhibition of the pH5.0-induced current, whole-cell patch-clamp of CHO cells; PcTx1 pre-applied 60 s in the conditioning pH 7.4 solution [2]?
Answer: 1.19 nM

B1: human acid-sensing ion channel 1a variant hASIC1a-D212 (receptor)
chain: T1 sequence with G212D
Question: How did the IpH5.8/IpH4.0 current ratio of co-transfected CHO cells, whole-cell patch-clamp [3] turn out when B1 was run?
Answer: 0.43

B2: human acid-sensing ion channel 1a wild type hASIC1a-G212 (receptor)
chain: T1 sequence
Question: Which IpH5.8/IpH4.0 current ratio of co-transfected CHO cells, whole-cell patch-clamp [3] does the source give for B2 here?
Answer: 0.41

B3: Mambalgin1 (peptide)
chain: LKCYQHGKVVTCHRDMKFCYHNTGMPFRNLKLILQGCSSSCSETENNKCCSTDRCNK
Question: B3 was tested. Which IC50 of inhibition of the pH5.0-induced current, whole-cell patch-clamp of CHO cells; Mambalgin1 pre-applied 60 s in the conditioning pH 7.4 solution [1] did it give?
Answer: 10.5 nM

Question: What about the IC50 of inhibition of the pH5.0-induced current, whole-cell patch-clamp of CHO cells; Mambalgin1 pre-applied 60 s in the conditioning pH 7.4 solution [2] of the same molecule?
Answer: 21.7 nM
